“And” between values parts separate entries of the source, which are not always exact repeats. Equal values may be shown once.
Legend:
[1] = substrate: N[C@@H](CCC[C@H](N)C(=O)O)C(=O)O; assay: purified protein, by the assay type; settings: other: reverse assay
[2] = substrate: O=C(O)CCC(=O)C(=O)O; assay: purified protein, by the assay type; settings: other: reverse assay
[3] = substrate: N[C@@H](CCC(=O)O)C(=O)O; assay: Quantitative forward and reverse assays of purified LL-DAP transaminases (Example III); type: biochemical, Syntrophobacter fumaroxidans MPOB; settings: other: forward assay
[4] = substrate: O=C(O)C1=N[C@H](C(=O)O)CCC1; assay: as above; type: biochemical, Syntrophobacter fumaroxidans MPOB; settings: other: forward assay
[5] = substrate: N[C@@H](CCC(=O)O)C(=O)O; assay: purified protein, by the assay type; settings: other: forward assay
[6] = substrate: O=C(O)C1=N[C@H](C(=O)O)CCC1; assay: purified protein, by the assay type; settings: other: forward assay
[7] = substrate: N[C@@H](CCC(=O)O)C(=O)O; assay: Quantitative forward and reverse assays of purified LL-DAP transaminases (Example III); type: biochemical, Bacteroides fragilis NCTC9343; settings: other: forward assay
Excerpt: (§1) All orfs were processed identically for expression in E. coli. The orfs were amplified by PCR using the indicated primers. The resulting DNA fragment was digested with BamHI and SalI and cloned into pET30b. The pET30b clone was sequenced. This plasmid was transformed into E. coli BL21-CodonPlus®-RIPL for expression and purification of the recombinant protein. For functional complementation experiments, the expression cassette was subcloned from pET30b into pBAD33 (Guzman et al., 1995) using XbaI and SalI. Using these enzymes the expression cassette included the entire orf, the His-Tag coding sequence and the ribosome binding site from pET30b. pBAD33 provided an arabinose-regulated promoter.
(§2) For protein expression the E. coli strains were grown on LB at 37° C. to an OD600 nm of 0.5 and protein expression was then induced with 1 mM IPTG for 4 hr at 25° C. Cells were lysed by sonication in a solution of 50 mM sodium phosphate and 300 mM NaCl (pH 8.0). Metabolites in the extract were removed by buffer exchange using an Amicon Ultra 30,000 MWCO ultrafilter and sodium phosphate/NaCl buffer, and the concentrated soluble protein sample was used for measurement of enzyme activity as an initial assessment of enzyme function. When the recombinant protein was to be purified a larger cell culture was grown and lysed as described above, but the buffer exchange step was not carried out. […] The pure protein was then concentrated in an Amicon Ultra 30,000 MWCO ultrafilter, replacing the elution buffer with 100 mM HepesKOH, pH 7.6.
(§3) Enzyme assays were performed as described above in Examples I and II.
(§4) The catalytic properties of sll0480, BF2643, Dhaf—3980, MTH52, and SfumDRAFT0821 were studied in greater detail using purified enzymes to determine their kinetic constants using quantitative forward and reverse assays.

[8] = substrate: N[C@@H](CCC[C@H](N)C(=O)O)C(=O)O; assay: as above; type: biochemical, Bacteroides fragilis NCTC9343; settings: other: reverse assay
Excerpt: as §1, §2, §3, §4

[9] = substrate: O=C(O)C1=N[C@H](C(=O)O)CCC1; assay: as above; type: biochemical, Bacteroides fragilis NCTC9343; settings: other: forward assay
Excerpt: as §1, §2, §3, §4

[10] = coupled with 2-OG dehydrogenase, pH 7.5, apparent Km, pH 7.5, 30.0 °C
[11] = Ddh-coupled, pH 7.5, 30° C., apparent Km, pH 7.5, 30.0 °C

B1: Syntrophobacter fumaroxidans LL-DAP transaminase SfumDRAFT_0821 (Syntrophobacter fumaroxidans MPOB) (protein)
chain: MAFVKAERLKLLPPYLFQEIDRLKAELTAKGVDVINLGVGDPDLPTPDHIIARLKTAAEDPSTHQYPSYSGMNDFKVSVAGWYKRRFGVELDPLSEVLTLIGSKEGLAHFPLAVINPGDLALVPTPAYPVYHVATMFAGGESYFMPLVRENGFLPDLDSIPADVARRAKVMFINYPNNPTGATAERDFFEKVIAFAREYDVIVCHDAAYTEMAFGGYRPLSFLELPGAGEVGVEFHSLSKTYNMTGWRLGFAVGNADILAGLGQVKSNIDSGAFNAVQWAGITALEGDQGCVVEMQRIYKERLDILIEGLKRIGLHPEVPRATFYVWCPTPPGYSSKDFSSLLLREAGIVATPGSGFGAPGEGYIRMALTVDKERVREAVERMRKLSF
Work on B1 yielded a Km [1] of 29 µM, a Km [2] of 700 µM and a Km [3] of 700 µM. The Km [4] was 12 µM.

B2: Arabidopsis thaliana LL-DAP-AT (At4g33680), wild type, recombinant (lacks first 39 amino acids, hexa-His and S-TAG), SEQ ID NO: 7 (Arabidopsis thaliana) (protein)
chain: VNTCKCVATPQEKIEYKTKVSRNSNMSKLQAGYLFPEIARRRSAHLLKYPDAQVISLGIGDTTEPIPEVITSAMAKKAHELSTIEGYSGYGAEQGAKPLRAAIAKTFYGGLGIGDDDVFVSDGAKCDISRLQVMFGSNVTIAVQDPSYPAYVDSSVIMGQTGQFNTDVQKYGNIEYMRCTPENGFFPDLSTVGRTDIIFFCSPNNPTGAAATREQLTQLVEFAKKNGSIIVYDSAYAMYMSDDNPRSIFEIPGAEEVAMETASFSKYAGFTGVRLGWTVIPKKLLYSDGFPVAKDFNRIICTCFNGASNISQAGALACLTPEGLEAMHKVIGFYKENTNIIIDTFTSLGYDVYGGKNAPYVWVHFPNQSSWDVFAEILEKTHVVTTPGSGFGPGGEGFVRVSAFGHRENILEACRRFKQLYK
B2 gave a Km ([5]; coupled with 2-OG dehydrogenase, pH 7.5, apparent Km, pH 7.5) of 2000 µM, a Km [5, 10] of 1900 ± 100 µM and a Km [1, 11] of 67 ± 2 µM. The Km [2, 11] was 8300 µM and 8700 ± 300 µM and the Km [6, 10] was 38 ± 4 µM.

B3: Arabidopsis thaliana LL-DAP transaminase At4g33680, SEQ ID NO: 7 (Arabidopsis thaliana) (protein)
chain: VNTCKCVATPQEKIEYKTKVSRNSNMSKLQAGYLFPEIARRRSAHLLKYPDAQVISLGIGDTTEPIPEVITSAMAKKAHELSTIEGYSGYGAEQGAKPLRAAIAKTFYGGLGIGDDDVFVSDGAKCDISRLQVMFGSNVTIAVQDPSYPAYVDSSVIMGQTGQFNTDVQKYGNIEYMRCTPENGFFPDLSTVGRTDIIFFCSPNNPTGAAATREQLTQLVEFAKKNGSIIVYDSAYAMYMSDDNPRSIFEIPGAEEVAMETASFSKYAGFTGVRLGWTVIPKKLLYSDGFPVAKDFNRIICTCFNGASNISQAGALACLTPEGLEAMHKVIGFYKENTNIIIDTFTSLGYDVYGGKNAPYVWVHFPNQSSWDVFAEILEKTHVVTTPGSGFGPGGEGFVRVSAFGHRENILEACRRFKQLYK
Protein B3 has a Km [5] of 1400 µM, a Km [1] of 62 µM and a Km [2] of 1400 µM. The Km [6] was 25 µM.

B4: Bacteroides fragilis LL-DAP transaminase Bf2643 (Bacteroides fragilis YCH46) (protein)
chain: MALVNEHFLKLPGSYLFSDIAKKVNTFKITHPKRDIIRLGIGDVTRPLPKACIEAMHKAVEEMTSAETFRGYGPEQGYDFLIEAIIKNDYAPRGIHLSPTEVFVNDGAKSDTGNIGDILRHDNSVGVTDPIYPVYIDSNVMCGRAGVLDTESGKWSNVTYMPCTAENHFIPAIPEKRIDIVYLCYPNNPTGTTLTKAELKKWVDYALANDTLILFDAAYEAYIREPDIPHSIYEIKGAKKCAIEFRSFSKTAGFTGVRCGYTVVPKELTAATLEGERIPLNRLWNRRQCTKFNGTSYITQRAAEAIYTPEGKEQIQETINYYMTNARIMKEGLESTGLKVYGGVNAPYLWVKTPNGTSSWRFFDQMLYEANVVGTPGVGFGPSGEGYIRLTAFGERDDCIEAMRRIKNRL
B4 showed a Km [2] of 1200 µM, a Km [7] of 1300 µM and a Km [8] of 10 µM. For the same protein, the Km [9] was 96 µM.

From US20090158455A1, “COMPOSITIONS AND METHODS FOR MODULATING LYSINE PRODUCTION” (priority 2005, published 2009)
